In the DeepSol protein solubility set:

Experiment: soluble on expression in E. coli; label from the status in PepcDB or PDB records

Row | Sequence | soluble on expression in E. coli
1 | MVVVPHIDRQFLKDVEAVFTARARVNLPVPNPGLGTWVDRTTDTWFRFNHQLSVAIADILQRNFHYAWLTYQMILVVFKARWFFSSRHTLTVWTQFNLVARTLYRDDNSLE | not soluble
2 | MGSDKIHHHHHHASSCGDECPVEQPYSVRVSVKDKNYLNISQFPQLSQVDENLPFRTYAGTLYYALYDASTGALIRESAVVSTEGEEKEYTLTFPGVPDGDYKLAVWGNLTTDYPAGILHQDGKEHTDIYVTSGDLHFSPDYQTEELTLERTKGKLLLLCSNFPSEITRIEQNVSHVYQSTDAGLNYSGSTQVDKNVPFTSVLETLLAPTSAEGHSKLTLTFYTGGTRASETPYLKLPVMEMDMRRNEITAVSIDYNTSEGIWEIKMFIRGEWITIHRLDIF | not soluble
3 | MKPRDINKLIASKIFGYEIKDDNIIKDGRYRLGIPLYSQNIESAWQVVEKLEYDVKVTKTDLKPKYQVHVFVPGGVKMVFAETAPMAICKGALASVDIELQD | soluble
4 | MATSLQAAATFLQPAKIAASPSRNVHLRSNQTVGKSFGLDSSQARLTCSLHSDLKDFAGKCSDAAKIAGFALATSALVVSGAGAEGAPKRLTYDEIQSKTYMEVKGTGTANQCPTIDGGSETFSFKAGKYTGKKFCFEPTSFTVKADSVSKNAPPDFQNTKLMTRLTYTLDEIEGPFEVGSDGSVKFKEEDGIDYAAVTVQLPGGERVPFLFTVKQLEASGKPESFSGKFLVPSYRGSSFLDPKGRGGSTGYDNAVALPAGGRGDEEELSKENVKNTAASVGEITLKITKSKPETGEVIGVFESLQPSDTDLGAKVPKDVKIQGVWYGQIE | soluble
5 | MTNEADKFVVDVIYALPTQQKVISVSVLPGTSAIDIVRQSNMVSFFPEIELETVKLGVFSNVVKHDQVILPGQRVEIYRPLIADPKDVRRRRADKAKDEGRANKVTGGRVS | soluble
6 | MSEEPVAAPGTISHPVYKLKRNWTWWYLNDERNKSWEERLKNVKTFSSVGEFWALHDSIKPPSGLNPPSDYNVFRDGIEPMWEVPQNQNGGRWLITIEKGRTPEIMDTIWTEILMAMIGEQFSDDIESLCGIVCNVRGKGSKISVWTTNSADDGANLRIGGVLKQVLNNASMIHQRPLYDVLRYEDHESCQKKTSSGVKAKHAIYAVEPREEKAPVPVSTETPATPAT | not soluble
7 | MRIESPQNPRVKALAALKERKERERTGRFLVEGRREVERALEAGLSLETLLLGPKARPEDRALAGGAEVLELSERALARVSTRENPAQVLGVFRLPRRSLAGVTLGAAPLVLVLLGLEKPGNLGAILRAADGAGADLVLVAEGVDLFSPQVIRNSTGAVFALPVYPVAEGEAARFLEEHNLPLVAATPEGERLYWEGDYRGGVAFLLGAEDKGLPEAWKRRAQVRVRIPMRGRADSLNVAVTAALLLYEALRQRSGGAPL | soluble
8 | MFTYKIGLSTSEHDRFVIDSPQTNLLQSSSWAKIKDSWGNDRLGFYQDDKLVAVASVLIQPLPLGFSMIYIPRGPIMDYQDKELLAFVITSLKKYAKTKRALFVKFDPSLFVTKNLISQEVNINEDTLSIAKDIQALGVEWTGLTEDMAENIQPRFQANIYKEDFTEEQLSKST | not soluble
9 | MGSDKIHHHHHHLELPLPPPGEDIVGQVHVIKAKYEDTFADIGTANDLGYLEMIAANPGVDPWLPGAGTEIILPTRFVLPPGPREGIVINLAEYRMYYFPKGESVVYTFPLGIGREGWGSPIANTRITAKTPNPTWTPPASIRKEHAEDGDILPTVVPAGPDNPLGPFKFTLGVPGYLIHGSNKKFGIGMRTSHGCFRMFNNNVLELSKMVPVGTPVRIINEPYKFGISAGKVYLEAHTPLDDQGNPSVVDKHTAVINALLKREDLANNLRMNWDMVRDVVAAEDGMPVEIAVPVENQGAAPMVTSIPPELQ | not soluble
10 | MTRAKQIILWASLSAMPLIAQASERSDDEIKALVYQAILERPEIILQAVEQLQQAEEAAQAASAHAALTENRDSLFNDPNAPVLGNPEGDVTVVEFFDYNCPYCRRAMAEVQGLVDADPNVRLVYREWPILGEGSDFAARAALAARQQGKYEAFHWALMGMSGKANETGVLRIAREVGLDTEQLQRDMEAPEVTAHIAQSMALAQKLGFNGTPSFVVEDALVPGFVEQSQLQDAVDRARKAAAK | not soluble
11 | MHKNREKNAMRREVNRADIGGKSGNKVKDCHVTIIRSLLSQIKENSLRVLLTYRKLFTINTKIAVEFIINSCIVYYKRSPHLL | not soluble
12 | MAVIVLAGTIGAGKSSLTALIANRLGSEAFYESVDDNEVLPLFYAEPEKYAFLLQIYFLNKRFDSIKQALTHENNVLDRSIYEDSLLFHLNADLGRANETEVKVYDDLLQNMLQELPYAAHKKRPDLLVHIRISFPKMLERIKKRGRPYEQIETDPTLYDYYQMLNERYDQWYEDYDESPKIQIDGDKYDFVEDPEACQYVLALIEKKIEELER | not soluble
13 | EHMQHLAMKGARFDIVLLPSSPTAHGLEQVQFQVAANKGNPPRPLNKVASGGELARISLALQVVASQYTQVPTLIFDEVDTGIGGGVAEMVGKALRALGRKHQVLAVTHLPQVASCGENHWRVRKHSEGEQTVSEISILDEIQRIEEVARMLGGEVITDTTRQHAAELLQLASKNSLF | not soluble
14 | MGSDKIHHHHHHMFLNLIATAGNDRIRDFLVNDWYRSLKENVDLSKTDVLVINYGLTGLPKEVINFPAVERSGLINNTRFINLAIFLENHPEYDQILFCDGGDIIFQSDISHLFEEHRDAFRAVVEQLSPPIDLVVKEEDLVNGKEIKSFLSNKKLFNVGVIIAPREGFLELARTMERRLKNINVWGGDTVIGNYVIYKNPHVELPSKYNFIPSTAREKFYVKDSKFYLENGELIPIVHNAGRYRFLRPVKDFGYGPGKNRVNKFNIWMFRMLFSVSNFLKMK | not soluble
15 | MALPRITQKEMTEREQRELKTLLDRARIAHGRPLTNSETNSVKKEYIDKLMALREAEAKKARQLKKKQAYKPDTEASFSWSANTPTRGRR | not soluble
16 | MGSDKIHHHHHHMAIISEHHIFLSDDANVGLQTRLKDAITRAIWDGRFAPGDRLPATRALARHLGISRITVSLAYDALLSTGYIVSIARSGYFVASDAPTRMEIVTPGKGDARDRLDWAARLGPVPPALGAQATPADWRRFRYPFIFGEPDVARFPVDDWRDCVRRGLGKRHFEQVADDASDRDDPFLVEQIVRRSVSGRGVAATVDEVLVTAGAQNALWLMVQVLFGGQGGEVAMEDPGYPELRNLLRQQRLTIHPVPVDRDGLKVDRIPEGVRAVFVTPSHQAPTGATMSMARRQALLERAEAEDFVVIEDDYDYEMSYASPSLPALKSLDQRGRVIYIGSFSKSIFPGLRLGYLTADARVVEHARAIRTLSERHPPGLTQRTVAYFLSEGHYNSHSRRMRMRMARRNEVLREALAEHGLTPALRRATGGTTLWLLGPEDLDADALAVSLRDKSVLIEAGSAFYAGGDAPRNRVRLGFATIETARIADGVALIAEAIREQAPTPR | not soluble
17 | MVHDSALPFDALPMPPQGREGFEECPYLDSQWVADTNGQRMTGQGVDTRFDTPACVFWSYPEAPQATVMVRHMPSEEEAIRVVDWAAPIDTTEPAEEPDGWSGGRAGHEEGAVYAVQKGPVAVVVWSNQQQSLKAELMAKEAIARLGL | soluble
18 | MALYAVDKPLHLTSHDVVEEARRRLSTRRVGHTGTLDPLATGLLLLVTNESTKLVPFLSGEDKEYIAWVSFGATTPTLDAEGPISEEAPARFDRKDLEAALPRFLEVREQVPPLYSAIKVGGKRAYEAAREGKPLALGPRPVRYLEVELLAFDPEPIPHPIAPSARGWRLAERRGRPVRLPRPLGAYPTAVVRLVVGPGTYVRAFARDLGEMLGTKAFLSGLVRTRVGRVGLERAVALSDLSPEKAIPELDVLPFPVVELSHTEARRVLEGMPLPIPAMGYVTLVDSKRRLLAIAEGDGFKLKIRRVFAKEA | soluble
19 | MNVERWAQALKEEYPRGLLGEREALVSLLVGKGLSHAEAVEVARALEAQGYAHFLPGERPRWFFSSRSLDLKALMRALDQEFPEFVGEGDEEEEALAFLAARLGDREVAREVLEAMRAAGYVERAYSPELARDRLFFRFPEALRLLG | soluble
20 | MAHHHHHHMLRKTNLFLFAASRALMSGGSSHGPTPYQDKSYPVQPHNLNELQQPPDSWRKSPIMSKLMDQSLPVYDDVVTGVGRLYWQEPARVWHLFEADDTLMLEEHDREEWNDRPYVAVNHLYEPPIGSEERPIRVEGTGNPGDQQIVLCFGNCAPHVPQSNYYMMMKGYSKTKCPMCQQWFYVHNRPWLVMHPDWTDEPAADEGPAYTFAEIEAEFDRDFHEFGVYLNAE | not soluble
21 | MSLRKEDKAAYRCLKAIKAGEKLTDAPAEDLPDLDLKPLEEMQNIYREHPEALQASVEIAEQCRVDVSLGQTRLPSFPTPDGTSADDYLTDICMEGLRSRFGKPDERYLRRLQYELDVIKRMKFSDYFLIVWDFMKHAHEKGIVTGPGRGSAAGSLVAYVLYITDVDPIKHHLLFERFLNPERVSMPDIDIDFPDTRRDEVIQYVQQKYGAMHVAQIITFGTLAAKAALRDVGRVFGVSPKEADQLAKLIPSRPGMTLDEARQQSPQLDKRLRESSLLQQVYSIARKIEGLPRHASTHAAGVVLSEEPLTDVVPLQEGHEGIYLTQYAMDHLEDLGLLKMDFLGLRNLTLIESITSMIEKEENIKIDLSSISYSDDKTFSLLSKGDTTGIFQLESAGMRSVLKRLKPSGLEDIVAVNALYRPGPMENIPLFIDRKHGRAPVHYPHEDLRSILEDTYGVIVYQEQIMMIASRMAGFSLGEADLLRRAVSKKKKEILDRERSHFVEGCLKKEYSVDTANEVYDLIVKFANYGFNRSHAVAYSMIGCQLAYLKAHYPLYFMCGLLTSEGHHHHHH | not soluble
22 | MAHHHHHHMNAKNDASESLLCGGEDISALVVDLGFSTTKIGHNQEDTPRVFLRSTCGEDVSPDGGSPRGDPSPKLKFPLNLHNPKEHLRIKPLFERNPVDNTTHMNSDVFERILRYGIEGVESKRVFHCSDEIPTPVKLGGLNLKIEEHPILLSEENIHNHRVRAEMTEILFETFNIPAVYFAKKAKLTAFSLGRSNALVIDIGGSSLNVTPVYEGYVLQRNSLQFGVGGDYFDRLIYGMLRKDQVRVVPYYEQGRGGSGGLGSASASCSPSCSFSGATHHPNVHSSYEEEAILDVIRYMKESICKVRVAHQSSANKKSETTSGGLKNGKEVEPTGQTHNGAKNVNAPKWQTGQTEEEEFFELPDGVKIKTDKYRYDIAEELFRAVPSAHNFNGLPEAIVNCIISSDVDIRKELLQAIIVTGGSSLFPGLVDRLYNSLREKECFSQSIKMKILNMTSSVECLYSSWLGGSILASLGTFQQLWVSRAEYDDAGHAIVSDRCF | not soluble
23 | MAPTPKFGPKKIQNVSAVSCSVKKYQASTSSPVPILNVQERVELRKLEQMLPVSPKNCDPADVVLRAASYIDQLVATVQARVKNGTLPMGALSSLPPQYSKPIKSSRRTVSSKKSRRSMEKKR | not soluble
24 | MDWHCVSPDGCERSEELQRIDRAYSTDYEWEFASTVDDSFEEYAMRILTDSLGSGCAWLYDLTLLGYNLQRSRQCYTVAGFELELSIPNEDPATFSEWVVVGRDIDVLGEE | not soluble
25 | MSPTLTHLALHVPDLDACIAFYETFCGMRVIHRRPGKGSQIVWMAEPGQEQRFIFVIMPGGQPRNLASDDYSHFGFALSSRAAVDDLARRAEAAGCLVWAPRDEPYPVGYYCGLRDPAGNYVEFSYGQPLGPGSEALPIP | not soluble
26 | MGSDKIHHHHHHMSKHALKLIPSSTEHADVPNDCKNCGAYHLCMSLWLKTADSSLLERVVKKKQVFKRGEVLYRMGQPLEYIYVIRGGSVKTCVSTEDGQVQVMGFHAAGELLGLNAISNREHKCEARAMGVTSVCEVSVERFEELAKKDPAIQYEILKIMSAEIHHGQELLLLLGKHNAEERIAIFLLNLSRQFEQRHCSATEFTLCMSRSDIGNYLGIAEETVCRIFARFQDDGLISSEYRNVKLKDIKRLEQIANQRPQRSLRQTNVASLYF | not soluble
